This note sets out measurements from paper PMC11813886.

Assay [1] deals with FHR-1_(1-3)::FHR-B4-5 hybrid protein (human | mouse). Put plainly: AUC; sedimentation velocity, 48000 rpm, protein in PBS pH 7; c(s) distributions with SEDFIT; dimer to monomers.
Assay [2] deals with FHR-B1-3::FHR-1_(4-5) hybrid protein (mouse | human). Described as above.
The target in the next assay is FHR-B_(Del.1) (mouse). Described as above.
For a further assay, the target named is FHR-B_(Dup.1-3) (mouse). The description is as above.
Assay [3] concerns the target FHR-B_(T161A,I166V) (mouse). The assay is described as above.
Another assay concerns the target FHR-B_(Y162H) (mouse). The description is as above.
Assay [4] deals with recombinant form of the native mouse FHR-B protein (rFHR-B) (mouse). The assay is described as follows: AUC; sedimentation velocity after exposure to pH 2.5 or pH 10.5 and dialysis back to physiological conditions.
Assay [5] has the same target. Put plainly: AUC; sedimentation velocity, 48000 rpm, protein in PBS pH 7; c(s) distributions with SEDFIT; dimer to monomers.

For the substance FHR-1_(1-3)::FHR-B4-5 hybrid protein, the stoichiometry N in assay [1] was 2.

FHR-B1-3::FHR-1_(4-5) hybrid protein displayed a stoichiometry N in assay [2] of 2. Take FHR-B_(Del.1) (domain or fragment): in the assay with FHR-B_(Del.1) (mouse), the stoichiometry N is 2. As for FHR-B_(Dup.1-3), the stoichiometry N in the assay with FHR-B_(Dup.1-3) (mouse) is 2. As for FHR-B_(T161A,I166V) (natural protein), the stoichiometry N in assay [3] came to 2. Substance FHR-B_(Y162H) (natural protein) came in with a stoichiometry N with FHR-B_(Y162H) (mouse) of 2. Turning to “recombinant form of the native mouse FHR-B protein (rFHR-B) (natural protein)”, the stoichiometry N in assay [4] and in assay [5] was 2 throughout.

What is called stoichiometry N is a count of units in the complex or per binding partner.
